The subject of the experiment is TRALI in BALB/c mice. The experiment can be described thus: Two-event (LPS + anti-H-2Kd mAb) TRALI model. The class given is in vivo, mouse. Here is the method: In order to determine the effect of anti-NET compounds as a treatment for TRALI, a mouse model of the 2-hit TRALI model was utilized. BALB/c male mice (8-10 week-old) were primed with an intraperitoneal injection of lipopolysaccharide (LPS) (0.1 or 0.5 mg/kg) 24 hours prior to challenge with anti-H2K^dmAb (clone 34-1-2s1, 1 mg/kg) or isotype control injected retro-orbitally. Before each injection mice were shortly anesthetized by inhalation of isoflurane. To measure the effect of DNaseI treatment on mice experiencing TRALI, mice received intranasal DNaseI (50 μg/mouse, 1 μg/ul) or 50 μl of the buffer-vehicle 10 minutes prior to the antibody injection.
The model was adapted from Looney et al. (2009).^20 Male BALB/c mice (8-10 week old) were primed with an i.p. injection of LPS (0.1 or 0.5 mg/kg, as indicated in the text) 24 hours prior to challenge with anti-H-2K^d mAb (clone 34-1-2s, 1 mg/kg) or isotype control injected retro-orbitally. In experiments involving DNase 1 treatment, mice that were injected with both LPS and the anti-H-2K^d mAb received i.n. DNase 1 (PULMOZYME®, Genentech, 50 μg/mouse, 1 μg/ul) 10 minutes before or 90 minutes after antibody injection. Control TRALI mice were injected with 50 μl of the DNase 1 vehicle-buffer in DNase 1 experiments. Blood collection, lung harvesting and arterial oxygen saturation measurements were all performed 2 hours after antibody injection. No event of TRALI-related death was recorded under these conditions in any of the treated mice.
Rectal temperatures were measured as an indicator of shock-like condition 2 hours post anti-H-2K^d infusion using a rectal temperature probe (MOUSEOX PLUS® system, STARR Life Sciences) connected to a POWERLAB™ data acquisition system (ADInstruments, USA).
Mouse peripheral blood counts were measured from EDTA (ethylenediaminetetraacetic acid)-anti-coagulated blood with a HEMAVET™ 950 veterinary hematology analyzer (Drew Scientific). This blood counter uses two different currents to analyze the cells. A low voltage current determines the volume and the number of cells (Coulter Impedance principle) and a high voltage current that passes through the cells generates information on their internal structure such as nucleus, fluid, granules and vacuoles.
Mice were sacrificed and intubated with a 24-gauge cannula after their tracheas were surgically isolated. The lungs were flushed three times with 0.8 ml of sterile PBS. BAL fluids were centrifuged for 5 minutes at 800 g. Protein concentration was quantified in the supernatant using the bicinchoninic acid method.
Blood arterial oxygen saturation was recorded 2 hours after anti-H-2K^d antibody injection, using a small rodent oxymeter sensor (MOUSE^OX™, STARR Life Sciences) mounted on the collar of each tested mouse. The 2 hour endpoint was used as per the model published by Looney and colleagues in 2009.^20-22
Mouse lungs were fixed by intratracheal infusion of 1.5% formaldehyde/1.5% glutaraldehyde in sodium cacodylate buffer (pH 7.35), excised and bathed in the same solution for 2 hours at 4° C. The fixed lungs were sliced into 0.5 mm sections; the sections were washed extensively in distilled water, frozen on a liquid-helium cooled copper block, freeze-dried at −80° C., and coated with 2 nm of platinum at a 45° angle with rotation and 10 nm of carbon without rotation. Tissue was removed from the metal casting using bleach (Austin's A-1-5.25% sodium hypochlorite), washed and picked up on formvar-coated 200 mesh copper grids. Grids were photographed in a JEOL-1200 EX electron microscope at 100 kV.

The mark [1] stands for this setting: intranasal DNaseI 50 μg/mouse 10 min prior to antibody.

Experimental findings from patent publication US11819540B2, “Methods for treating and preventing neutrophil-derived net toxicity and thrombosis” (CHILDREN'S MEDICAL CENTER CORPORATION, priority 2011, dated 2023) are described below.

Entries after “also recorded” stand apart in the source; their conditions may differ.

B1: rhDNase-1: recombinant human DNase-1 (Dornase alpha, Pulmozyme, Genentech) (protein, UniProt P24855 23-282, looked up)
Deoxyribonuclease-1: LKIAAFNIQTFGETKMSNATLVSYIVQILSRYDIALVQEVRDSHLTAVGKLLDNLNQDAPDTYHYVVSEPLGRNSYKERYLFVYRPDQVSAVDSYYYDDGCEPCGNDTFNREPAIVRFFSRFTEVREFAIVPLHAAPGDAVAEIDALYDVYLDVQEKWGLEDVMLMGDFNAGCSYVRPSQWSSIRLWTSPTFQWLIPDSADTTATPTHCAYDRIVVAGMLLRGAVVPDSALPFNFQAAYGLSDQLAQAISDHYPVEVMLK
For the molecule B1, the “rectal temperature (shock-like condition)” value (2 hours after mAb infusion, DNase 1 as prophylaxis or treatment) is given as “normal”. Further, the “arterial oxygen saturation (mean and minimum)” value by setting is: (DNase 1 i.n. 90 minutes after onset of TRALI (Post)) “improves arterial oxygen saturation; also recorded: succeeded in correcting the defect in blood oxygenation”; (DNase 1 i.n. pretreatment 10 min before antibody (Pre)) “succeeded in correcting the defect in blood oxygenation; also recorded: more stable arterial blood oxygen saturation and improved transient hypoxia”. Besides, the “down spikes in blood arterial oxygen saturation (transient hypoxia)” value (DNase 1 i.n. pretreatment vs vehicle buffer) was “significantly attenuated”. Moreover, the TRALI outcome (inhalation, before or after TRALI onset) is listed as “had a positive effect”. In addition, for the setting “intranasal DNase 1 50 μg/mouse 10 min prior to antibody injection”, the “fibrous material (NETs) in alveoli, electron microscopy” value is “absent; also recorded: prevents their alveolar accumulation; also recorded: no fibrous material could be detected”. In addition, under setting [1], the “TRALI-induced decrease of platelet counts” value is reported as “diminished”. Also, under setting [1], the “TRALI-induced increase of BAL protein levels” value is “diminished”.
